Results as given in the DeepSol protein solubility set.

Assay: soluble on expression in E. coli; label from the status in PepcDB or PDB records

Sequence | soluble on expression in E. coli
MNQRKLDHEVKTLQVQAAQFAKQTGQWIGMVENFNQALKEIGDVENWARSIELDMRTIATALEYVYKGQLQSAPS | soluble
AIADKKAMWDRFYTENGSKGQFKNFEWFFGFPSVKDLVLPALQAMSCSHSGPLHILDMGCGTSALGPCIYSTSPCAVRVTCADISPVAVKLMEEHTKSTSTQPCNPSSALVFLELDCTQMTGHFKSRSLDLILDKGTTDALVRSKEGQVKAGQILRQSLQVLRPSGSFLQFSDEDPDARLIWLEREVQGAEVTADVGVQEIGELRGVSYFCYQISPRSRPHS | soluble
MSLIERVRTDLYRIPLPTRLTDSTHGAMMDFELITVRIEDSDGATGLGYTYTVNHGGAAVATMVDKDLRGCLLGADAEQIEKIWQSMWWRLHYAGRGGHATSAISAVDIALWDLKGIRARTPLWKLFGGYDPVVPVYAGGIDLELPVADLKTQADRFLAGGFRAIKMKVGRPDLKEDVDRVSALREHLGDSFPLMVDANMKWTVDGAIRAARALAPFDLHWIEEPTIPDDLVGNARIVRESGHTIAGGENLHTLYDFHNAVRAGSLTLPEPDVSNIGGYTTFRKVAALAEANNMLLTSHGVHDLTVHALASVPHRTYMEAHGFGLHAYMAEPMAVTDGCVSAPDRPGHGVVLDFERLGRLAVGEGHHHHHH | soluble
MSELHFMSLEELDNELEKDDSGIYFIKDYNDNIIYIGKAFSIKSRVLAHFNSYSNIKEYVHLFNKVAYLIEDSLLKRSLLQVTYMIKYKPVLNKEVQKEFPELYTQYIKQTNKKSMLLEIEEAKEKRDELKNRLVKLVGGKTMFYDIISLLNNGYNYHVLAKVLSIELQTLIIMKEHRNKFPMPHNYKRTIKHQDIMYALSGKKNLSTSRLNT | soluble
HHHHHHMAKKVNWYVSCSPRSPEKIQPELKVLANFEGSYWKGVKGYKAQEAFAKELAALPQFLGTTYKKEAAFSTRDRVAPMKTYGFVFVDEEGYLRITEAGKMLANNRRPKDVFLKQLVKWQYPSFQHKGKEYPEEEWSINPLVFVLSLLKKVGGLSKLDIAMFCLTATNNNQVDEIAEEIMQFRNEREKIKGQNKKLEFTENYFFKRFEKIYGNVGKIREGKSDSSHKSKIETKMRNARDVADATTRYFRYTGLFVARGNQLVLNPEKSDLIDEIISSSKVVKNYTRVEEFHEYYGNPSLPQFSFETKEQLLDLAHRIRDENTRLAEQLVEHFPNVKVEIQVLEDIYNSLNKKVDVETLKDVIYHAKELQLELKKKKLQADFNDPRQLEEVIDLLEVYHEKKNVIEEKIKARFIANKNTVFEWLTWNGFIILGNALEYKNNFVIDEELQPVTHAAGNQPDMEIIYEDFIVLGEVTTSKGATQFKMESEPVTRHYLNKKKELEKQGVEKELYCLFIAPEINKNTFEEFMKYNIVQNTRIIPLSLKQFNMLLMVQKKLIEKGRRLSSYDIKNLMVSLYRTTIECERKYTQIKAGLEETLNNWVVDKEVRF | soluble
MKRLLLSAAILSSMALFNVNAQELKTSADMKGSFKKNVVLEVFTAEWCGYCPGGKERIAKAIEMLDDEYKERVFQTFVHYNDGISKKWPRVGQLFIALDQTLGIPGFPTFSVCRMEKKGENLSIGAPIAIKNKIMKGFGDGTAPAEVNLKLTKGATPEDVCTATFTGKVDADLIGKPLMLTAYVLKNNMKPINPQNGAGDGYLHQHTVLMILSTDVKGDALNIAADGSFTIKKEFKLDGFEIKDTDVLAFVHHPMSNAENHSIINAGQESLDKAEPTATEQIVATPSVKAYVQNGKIVVEEEYSKMEVFNATGQLVKNESLVPGVYVVRITANGVMYFLKVLVPMAGDPLEHHHHHH | soluble
MSLPKIIPAIMAGGRGTRLWPLSRATAAKQFLKLIGEETLFQDTLKRVSDAKVYGAPLVITNEEFRFLVAEQARELGVTLSSIVLEPVPRNTAAAVAVAARIVADRFGEDALLLVLPSDHAITVDDTYKKCVRSACIAAAEGKLVTFGIQPTWPATGYGYIERGTYLGKDVHAVQCFVEKPSLEKAAALLETGNYYWNSGMFLFQAASIIAELEEHAPDVLSAVHAAVRGSTVDADFIRLAPESFSQAPSISIDYALMEKTANAAVVCSDFAWSDLGSWDAVWKNEEQNADGNVLKGNVTACNTKNSLVLSHTAHLAVQGMDGVAVIASEDAVFVGRLEEAHEIGNLVKRLAADENTARLTELHPTLIRPWGGYTTMLNGDRFQVRRLFVRPGKMLSLHKHFHRSEHWICVKGTAEVTIEDRVTILHENQSIYIPEGAIHRLGNPGKIMLELVEIQTGAYLGEDDIIRVADESRNEMPDSREGHHHHHH | not soluble
MADGINSTVTVERSDGPRHRGTAAGIGGLDLDLEDVTHKELIEARRTGDVGLVHSWELVTAVDGPGTRMTMFMSGCPLRCLYCHNPDTMGMKEGTVERVESIVKKIKRYRNVFKASGGGLTISGGEPLFQIAFTRRVLKEVHDAGIHTTIDTSGYLGARLTDEDLENIDLVLLDVKSGDEETYHRVSGGRELQPTIDFGNRLNAIGKPVWIRFVLVPGVSDAPENINNVADIVAQWKDNVERVEVLPFHNMGADKWHELGLNYELEDTKPPTQESVEFAKETFRSRGLTVY | not soluble
MGSDKIHHHHHHATEADVEAAFNPYKNGFPSFPGLAAGTVVNKGNVEQFKDALDPGLYQIVKNGWDEIKVGPTTQFAMDKFYVEATKKNLNTAKLGAQNGEITGFVAGRPFPEEPKADDPRAGEKLAWNFKYGLNWGDNAAIYPFYWKYRNMTSGQVERTLKFNFHFLNFKHRVQHAPVPEVTPNPSELFRGIYVKVLEPQDLKNTQLLIQRYEDDLKFDDAYLYLGFQRRVRRLATGQTTDAFLGADLMIEDFEGYNGRISDMKWTFKGTKNILMPYYNHNELQLTDEFKDPSGYKFVDFGGQGGCFPKITWQLRKVYVLEAAPVLASHPVSKRVFHVDAQVFNINRTLIYDRKGELWKTFTIGKSHPDHHLPVNKGTGIAIDDSFSMIDVQAKHCTTGQFKGQVDPKLNPPSLFQVQNMRGGD | not soluble
STSTFQTRRRRLKKVEEEENAATLQLGQEFQLKQINHQGEEEELIALNLSEARLVIKEALVERRRAFKRSQKKTREKELESIDVLLEQTTGGNNKDLKNTMQYLTNFSRFRDQETVGAVIQLLKSTGLHPFEVAQLGSLACDTADEAKTLIPSLNNKISDDELERILKELSNLETLY | soluble
MSLAEPRNGESAGADAVLTKAIEDALGNGTGSVTVDLPQAEGKAKAGDLVTLRYTMTTADGALVATTEESVAADKGRPRSVAFTARSRYRPEEIVAGGEGNLPGVAEAVIGMAPGEKKHLSLSADKAFGARDPQRVVTMATVKSLPRTVAIPAADYVKNFGALPVVGKELPVVPYFPARVIEVTEQQAKLQLLARDGERFTESFGAVETKVDGESVKIRLVPTIGAPFEFRGARGTITAAGEENFTVDFNHPLADRSVVLDLEVVSLTKGEKLAAISVPWLENHDQGLEKAKQEEKPAVLVLYADWCQWCKKLFGETAEDPRIKAVSDRFVWIRVNSDKEKAYKEQYGQDGYPLIVLLDRQGKVAKKLDGFRDAAGLREELNALLEGHHHHHH | soluble
MSLTEDVTSQTSESLARHSVLAEDLSQDGLTSLGAPGARVLLVWDAPNLDMGLGSILGRRPTALERPRFDALGRWLLARTAEIVAGRPGISTEPEATVFTNIAPGSAEVVRPWVDALRNVGFAVFAKPKVDEDSDVDRDMLAHIDERYREGLAALVVASADGQAFRQPLEAVARSGTPVQVLGFREHASWALASDTLEFVDLEDIAGVFREPLPRIGLDSLPEQGAWLQPFRPLSSLLTSRV | soluble
MGSDKIHHHHHHMSGIEAFSPKGMLHECWSAQANDYAIVCGWALQGKTFLVGDVAGGLYAFEGISGKLIWQIKDIHKGGLLAMSIHPNGKTFATAGQDGHVNIWESQKGTSTKTLELGKGWVEHIKWSPDGKFLAVVFTKYVYVFDDKGQEHWRSEEHPSTVSAIAWSNSNELATACYGQVTFFDVVNDKINQKLEWRGSLVSMVLSPDGDIVACGSQDNSVHFWRRSTDQDSEMTGYPGKPSHLAFDQTGTVLATGGSDRVTVWSFQGDGPEGTVPGELMLHTEPISCLAFSHSGMLLASGSRDGSVFSWFLQKDGQGDPVGGAFAGDLVSQIAWHPDDTALAAINANGGITVWEFKVRTKTSPQGFG | not soluble
MGSDKIHHHHHHMEFSPQQDEALQAVARWLQAGKPQLFRLFGYAGTGKTTLARYFAEHVDGQVQFAAFTGKAAQVLRSKGAVNARTIHSLIYRPKGEESVEDEVTGKTSMSPTFSLNRQSPISRAKLVVIDECSMVDEQLGRDLMSFGTPILVLGDPGQLPPISGGGFFTDHEPDFLLTEIHRQARDNPILRLALDVREGREFMRGDYGTAQVIGKEDVTQELVLKADQVLVGTNRTRRRYNQRLRELKGFNADYPQAGDKLVCLRNDPAKGLLNGSLWKVMTSSRETVKPGINLLVSPEEDDPDRGVAKIKLLKAAFEDPDADIPWQQKKRFDDFDYGYALTVHKAQGSQWNEIVLFDESWAFKETRQRWLYTAITRAAERLTIVR | not soluble
MAGLGHPAAFGRATHAVVRALPESLGQHALRSAKGEEVDVARAERQHQLYVGVLGSKLGLQVVELPADESLPDCVFVEDVAVVCEETALITRPGAPSRRKEVDMMKEALEKLQLNIVEMKDENATLDGGDVLFTGREFFVGLSKRTNQRGAEILADTFKDYAVSTVPVADGLHLKSFCSMAGPNLIAIGSSESAQKALKIMQQMSDHRYDKLTVPDDIAANCIYLNIPNKGHVLLHRTPEEYPESAKVYEKLKDHMLIPVSMSELEKVDGLLTCCSVLINKKVDS | not soluble
MSLDLSLNNLYSISTVELIQAFANTPASVTSLNLSGNSLGFKNSDELVQILAAIPANVTSLNLSGNFLSYKSSDELVKTLAAIPFTITVLDLGWNDFSSKSSSEFKQAFSNLPASITSLNLRGNDLGIKSSDELIQILAAIPANVNSLNLRGNNLASKNCAELAKFLASIPASVTSLDLSANLLGLKLEHHHHHH | not soluble
MGSDKIHHHHHHMDDRARALLKALIERYIADGQPVGSRTLSKVFDLSPATIRNVMADLEELGLIHSPHTSAGRVPTPRGYRMFVDSLLAVRAYQFEPAHIGELLPVSEPSRAVNAAAALLSNLTQFAGVVLTPKRTQIFRQIEFIRLSDKRVLLIIVTPEGDVQNRILSAQRDYTEAELLEAGNFFNVHFSGKSFDAVRRTLSTELAQLRDDISRLMQAAVEAGAEAADDGEAVVISGERKLLDVTDIASDMDRLRKMFSLFEKKTDLLQLLDVSSRAQGVQIYIGGDSQLVPMEEVSVITAPYGVDGKVIGTLGVIGPTRMAYERVIPIVDITARLLSNALSHNQ | not soluble
MLRDLRETDVKAICDINQEALGYTFSPEETASQLARLSQDSHHFLLGYEDAANHVLLGYVHAEVYESLYSKAGFNILALAVSPQAQGQGIGKSLLQGLEEEAKRCGYGFIRLNSANHRLGAHAFYEKVGYTCDKMQKRFIRIC | not soluble
MGSDKIHHHHHHMKNVLILSSSPRRGGNSDTLCDEFMQGAIESGHRVEKVFLRDKTIHPCTGCGVCSQYKKPCPQKDDAAEIIGKMLAADVIVMATPVYFYAMSAQMKTLIDRCCGPYTEMKNKEFYFIATAAEEDNGIMDRIVANFMGFLDCLENPTVKGTLFCGGVWHVGEIEGNPTLRQAYEQGKRV | not soluble
MSRRSSSSDSAVYVNFLERERRADVEKAARLYETRRDRVEPSYVFPAPSGEKRVGPNSNTGQKGVVGSYPVSIDYLTVVFSYARLAEAGYFDEPRFLLYLLFGLSVDDVIVGSHTSVRWHFYNSSASIIDSNGDLVGKIGWDGNADSYCISLTGSACRYIHDWSKVKRSLASLDARITRCDVAYDDYDGILGTVRHHEALAREHLAPAGGCLLFSSGGTPPRTRFLDDHGGGSGCTLYVGQRGHKQLCIYEKGKQLGVAESPWVRYEVRLYAKHAVIPFDLLEEPMRYLRGSYDYLCQLFSSVVVSPVSRIRTVVKHVEATGEALVRWLRRQVGPALGVLRQALGCGFSDFIVDRVEREGLPSRFRRICRGGDLLAYLRETLIDCSVGVCV | not soluble
